Assay results: US6106823

Target: CD3 (human)

lymphokine production (IL-2, ng/ml) by T cell clone 827 with CD3 + TPA: 10.6 ng/mL
Substance: anti-CD3 mAb SPV-T3b (antibody)
